The text below walks through data of patent US5837516A, “Subtilisin variants capable of cleaving substrates containing basic residues” (Genentech, Inc., priority 1995, dated 1998).

Series [1] deals with T1, subtilisin BPN' variant N62D/G166D (mature enzyme SEQ ID NO: 72) (Bacillus amyloliquefaciens, UniProt P00782, G273D/N169D).
T1 construct: made in house; host or cells: Bacillus subtilis BG2036 (protease-deficient), secreted
T1 sequence (P00782 108-382 N169D/G273D): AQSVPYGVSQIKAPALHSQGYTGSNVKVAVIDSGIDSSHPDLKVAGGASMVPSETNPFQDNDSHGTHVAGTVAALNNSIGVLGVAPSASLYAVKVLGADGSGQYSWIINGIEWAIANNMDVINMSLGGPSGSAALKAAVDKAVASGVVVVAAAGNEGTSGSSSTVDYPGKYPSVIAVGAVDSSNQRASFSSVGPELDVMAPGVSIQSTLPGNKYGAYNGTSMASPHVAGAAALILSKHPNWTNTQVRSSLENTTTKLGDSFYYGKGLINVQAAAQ
In words: Kinetic analysis, hydrolysis of succinyl-tetrapeptide-pNA substrates. It counts as biochemical. How it is done: (§1) The mature N62D/Y104D/G166D variant was purified and analyzed for its ability to hydrolyze several tetrapeptide-pNA substrates.
(§2) Kinetic analysis of WT, N62D/G166D, and N62D/Y104D/G166D subtilisin BPN'
(§3) Subtilisins were assayed by measuring the initial rates of hydrolysis of p-nitroanilide tetrapeptide substrates in 0.4 mL 20 mM Tris-Cl pH 8.2, 4% (v/v) dimethyl sulfoxide at (25±0.2)° C. as described previously (Estell, D. A., Graycar, T. P., Miller, J. V., Powers, D. B., Burnier, J. P., Ng, P. G. and Wells, J. A. (1986)Science 233:659-663). Enzyme concentrations (E)0 were determined spectrophotometrically using E280 nm 0.1%=1.17 (Matsubara, H.; Kasper, C B.; Brown, D. M.; and Smith, E. L. (1965)J. Biol. Chem.,240:1125-1130.), and were typically 5-50 nM in reactions. Initial rates were determined for nine to twelve different substrate concentrations over the range of 0.001-2.0 mM. Plots of initial rates (v) versus substrate concentration (S) were fitted to the Michaelis-Menton equation, [formula] to determine the kinetic constants kcat and Km (Fersht, A. in "Enzyme Structure and Mechanism", Second edition, Freeman and Co., N.Y.) using the program Kaleidagraph (Synergy Software, Reading, Pa.).

The target of series [2] is T2, subtilisin BPN' variant N62D/Y104D/G166D (SEQ ID NO: 75) (Bacillus amyloliquefaciens, UniProt P00782, G273D/N169D/Y211D).
T2 construct: the mature enzyme +1 to +275; made in house; host or cells: Bacillus subtilis BG2036 (protease-deficient), secreted
T2 sequence (P00782 108-382 N169D/Y211D/G273D): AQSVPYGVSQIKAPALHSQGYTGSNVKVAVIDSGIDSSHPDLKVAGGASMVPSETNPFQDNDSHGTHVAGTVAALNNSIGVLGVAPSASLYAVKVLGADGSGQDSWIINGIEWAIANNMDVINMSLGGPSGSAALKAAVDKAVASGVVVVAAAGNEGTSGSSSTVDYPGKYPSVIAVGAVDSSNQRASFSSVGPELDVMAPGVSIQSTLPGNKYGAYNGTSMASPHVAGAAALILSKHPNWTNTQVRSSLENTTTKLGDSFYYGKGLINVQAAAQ
The description is as above. Format: biochemical. The following applies: relative to succinyl-RAKR-pNA. How it is done: as §1, §2, §3

Series [3] concerns the target T3, subtilisin BPN' variant N62D/G166E (Bacillus amyloliquefaciens, UniProt P00782, G273E/N169D).
T3 construct: correct folding and maturation of subtilisin requires autolytic cleavage of its propeptide; made in house; host or cells: Bacillus subtilis BG2036 (protease-deficient), secreted
Description: Kinetic analysis, hydrolysis of suc-AAXX-pna substrates. Format: biochemical. Particulars: Lys-Lys versus Lys-Phe substrate. Here is the method: Despite the less than additive effects seen for the two charged substitutions in the S2 site, we decided to combine the best S2 site variant (N62D) with either of the acidic substitutions in the S1 site. The two double mutants, N62D/G166E and N62D/G166D, were analyzed with substrates having the form, suc-AAXX-pna (SEQ ID NO. 71) where XX was either KK (SEQ ID NO. 66), KR (SEQ ID NO. 67), KF (SEQ ID NO. 62), PK (SEQ ID NO. 58), PF (SEQ ID NO. 56) or AF (SEQ ID NO. 63) (FIG. 4). The wild-type preference was AF>PF^~ KF>KK^~ PK>KR, whereas the double mutants had the preference KK>KR>KF>PK^~ AF>PF. […]
as §3, with “Plots of initial rates (v) versus substrate concentration (S) were fitted to the Michaelis-Menton equation, [formula] to determine the kinetic constants kcat and Km (Fersht, A. in "Enzyme Structure and Mechanism", Second edition, Freeman and Co., N.Y.) using the program Kaleidagraph (Synergy Software, Reading, Pa.).” left out

A further series addresses T4, succinyl-AAPF-pNA.
T4 sequence (peptide, N-terminal succinyl; C-terminal p-nitroanilide (pNA)): AAPF

The next series addresses T5, succinyl-AAKR-pNA.
T5 sequence (peptide, N-terminal succinyl; C-terminal p-nitroanilide (pNA)): AAKR

Substrate in series [4]: C[C@H](NC(=O)CCC(=O)O)C(=O)N[C@@H](C)C(=O)N1CCC[C@H]1C(=O)N[C@@H](Cc1ccccc1)C(=O)Nc1ccc([N+](=O)[O-])cc1
In words: Kinetic analysis, hydrolysis of succinyl-tetrapeptide-pNA substrates. Format: biochemical, Bacillus amyloliquefaciens. Particulars: other: WT, 20 mM Tris-Cl pH 8.2, 4% DMSO, 25 C. Here is the method:
as §1, §2, §3

Substrate in series [5]: C[C@H](NC(=O)CCC(=O)O)C(=O)N[C@@H](C)C(=O)N[C@@H](CCCCN)C(=O)N[C@@H](CCCNC(=N)N)C(=O)Nc1ccc([N+](=O)[O-])cc1
The series is described as above. Particulars: other: WT, 20 mM Tris-Cl pH 8.2, 4% DMSO, 25 C. It counts as biochemical, Bacillus amyloliquefaciens. Here is the method:
as §1, §2, §3

Residues, ends and D or L forms follow the SMILES beside them.

T3 sequence (P00782 108-382 N169D/G273E): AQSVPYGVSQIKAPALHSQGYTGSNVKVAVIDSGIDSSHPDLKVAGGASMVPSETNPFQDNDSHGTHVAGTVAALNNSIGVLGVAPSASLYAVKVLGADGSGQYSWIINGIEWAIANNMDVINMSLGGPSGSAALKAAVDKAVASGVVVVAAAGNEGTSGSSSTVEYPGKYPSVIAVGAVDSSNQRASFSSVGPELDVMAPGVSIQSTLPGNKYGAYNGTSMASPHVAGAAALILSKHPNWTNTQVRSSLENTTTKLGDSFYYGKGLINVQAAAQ

In the case of `C[C@H](NC(=O)CCC(=O)O)C(=O)N[C@@H](C)C(=O)N[C@@H](CCCCN)C(=O)N[C@@H](CCCNC(=N)N)C(=O)Nc1ccc([N+](=O)[O-])cc1` [succinyl-AAKR-pNA] (HELM PEPTIDE1{[O=C(O)CCC(=O)[*:2]].A.A.K.R.[O=[N+]([O-])c1ccc(N[*:1])cc1]}$$$$V2.0), the “ratio of catalytic efficiency for succinyl-AAKR-pNA versus succinyl-AAPF-pNA” value in series [1] is on record as 1.9×10^2. The “catalytic efficiency (kcat/Km), fold less efficiently hydrolyzed than succinyl-RAKR-pNA” value in series [2] was determined as 60 fold.

Turning to `C[C@H](NC(=O)CCC(=O)O)C(=O)N[C@@H](C)C(=O)N[C@@H](CCCCN)C(=O)N[C@@H](CCCCN)C(=O)Nc1ccc([N+](=O)[O-])cc1` [Lys-Lys substrate] (HELM PEPTIDE1{[O=C(O)CCC(=O)[*:2]].A.A.K.K.[O=[N+]([O-])c1ccc(N[*:1])cc1]}$$$$V2.0), the “ratio of catalytic efficiencies, times faster cleaved than the Lys-Phe substrate” value in series [1] (Lys-Lys versus Lys-Phe substrate) is recorded as 18 times; in series [3], “about 8 times”.

B1: subtilisin BPN' from Bacillus amyloliquefaciens, wild type (WT), SEQ ID NO: 90 (Bacillus amyloliquefaciens) (protein)
chain: AQSVPYGVSQIKAPALHSQGYTGSNVKVAVIDSGIDSSHPDLKVAGGASMVPSETNPFQDNNSHGTHVAGTVAALNNSIGVLGVAPSASLYAVKVLGADGSGQYSWIINGIEWAIANNMDVINMSLGGPSGSAALKAAVDKAVASGVVVVAAAGNEGTSGSSSTVGYPGKYPSVIAVGAVDSSNQRASFSSVGPELDVMAPGVSIQSTLPGNKYGAYNGTSMASPHVAGAAALILSKHPNWTNTQVRSSLENTTTKLGDSFYYGKGLINVQAAAQ
notes: correct folding and maturation of subtilisin requires autolytic cleavage of its propeptide
B1: the figures for the kcat/Km, hydrolysis of succinyl-tetrapeptide-pNA with succinyl-AAPF-pNA and with succinyl-AAKR-pNA were 260000 M⁻¹ s⁻¹ and 1700 M⁻¹ s⁻¹, respectively. In addition, the Km in series [4] is 110 µM; in series [5] it was 1700 µM. The kcat in series [4] is 29 s⁻¹; in series [5], 2.8 s⁻¹. Also, the kcat/Km in series [4] was found to be 260000 M⁻¹ s⁻¹.
